pKd: −log10 of the molar value. Blank lines part the entries; values can stand above or below the sequence they belong to.
Assays:
[1] = target: HLA-A*02:01; assay: IEDB peptide-MHC binding, purified MHC/direct/fluorescence; filed as Kd, often an IC50 or EC50 that approximates it; ≥ and ≤ were set here for values at or beyond the usual limits of such assays
[2] = target: HLA-A*26:01; assay: as above
[3] = target: HLA-B*15:01; assay: as above
[4] = target: HLA-A*01:01; assay: as above
[5] = target: HLA-B*07:02; assay: as above
[6] = target: HLA-B*58:01; assay: as above
[7] = target: HLA-A*31:01; assay: as above
[8] = target: HLA-B*08:01; assay: as above
[9] = target: HLA-A*11:01; assay: as above
[10] = target: HLA-A*03:01; assay: as above
[11] = target: HLA-A*69:01; assay: as above
[12] = target: HLA-B*40:01; assay: as above
[13] = target: HLA-B*27:05; assay: as above
[14] = target: HLA-B*44:02; assay: as above
[15] = target: HLA-A*24:03; assay: as above
[16] = target: HLA-A*02:50; assay: IEDB peptide-MHC binding, purified MHC/competitive/fluorescence; filed as Kd, often an IC50 or EC50 that approximates it; ≥ and ≤ were set here for values at or beyond the usual limits of such assays
[17] = target: HLA-B*48:01; assay: as above; settings: source organism: Giardia lamblia ATCC 50803
[18] = target: HLA-C*05:01; assay: IEDB peptide-MHC binding, purified MHC/direct/fluorescence; filed as Kd, often an IC50 or EC50 that approximates it; ≥ and ≤ were set here for values at or beyond the usual limits of such assays
[19] = target: HLA-A*68:02; assay: as above
[20] = target: HLA-B*38:01; assay: as above; settings: source organism: Ravn virus - Ravn, Kenya, 1987
[21] = target: HLA-B*18:01; assay: as above
[22] = target: HLA-B*57:01; assay: as above
[23] = target: HLA-B*08:02; assay: as above
[24] = target: HLA-B*46:01; assay: as above
[25] = target: HLA-B*39:01; assay: as above; settings: source organism: Marburg virus - Musoke, Kenya, 1980
[26] = target: HLA-B*48:01; assay: as above; settings: source organism: Marburg virus - Musoke, Kenya, 1980
[27] = target: HLA-B*15:09; assay: as above; settings: source organism: Ravn virus - Ravn, Kenya, 1987
[28] = target: HLA-B*15:17; assay: as above; settings: source organism: Marburg virus - Musoke, Kenya, 1980
[29] = target: HLA-A*02:01; assay: IEDB peptide-MHC binding, purified MHC/competitive/fluorescence; filed as Kd, often an IC50 or EC50 that approximates it; ≥ and ≤ were set here for values at or beyond the usual limits of such assays; settings: source organism: Orthomarburgvirus marburgense
[30] = target: HLA-A*26:02; assay: as above
[31] = target: HLA-A*30:01; assay: as above; settings: source organism: Orthomarburgvirus marburgense
[32] = target: HLA-A*24:02; assay: IEDB peptide-MHC binding, purified MHC/direct/fluorescence; filed as Kd, often an IC50 or EC50 that approximates it; ≥ and ≤ were set here for values at or beyond the usual limits of such assays; settings: source organism: Escherichia coli O157:H7
[33] = target: HLA-C*04:01; assay: as above
[34] = target: HLA-B*07:02; assay: IEDB peptide-MHC binding, purified MHC/competitive/fluorescence; filed as Kd, often an IC50 or EC50 that approximates it; ≥ and ≤ were set here for values at or beyond the usual limits of such assays
[35] = target: HLA-C*12:03; assay: IEDB peptide-MHC binding, purified MHC/direct/fluorescence; filed as Kd, often an IC50 or EC50 that approximates it; ≥ and ≤ were set here for values at or beyond the usual limits of such assays; settings: source organism: Coxiella burnetii RSA 331
[36] = target: HLA-C*07:02; assay: as above
[37] = target: HLA-B*15:01; assay: IEDB peptide-MHC binding, purified MHC/competitive/fluorescence; filed as Kd, often an IC50 or EC50 that approximates it; ≥ and ≤ were set here for values at or beyond the usual limits of such assays; settings: source organism: Vaccinia virus Tian Tan
[38] = target: HLA-A*01:01; assay: as above; settings: source organism: Vaccinia virus Tian Tan
[39] = target: HLA-A*02:06; assay: as above; settings: source organism: Vaccinia virus Tian Tan
[40] = target: HLA-B*15:17; assay: as above; settings: source organism: Vaccinia virus Tian Tan
[41] = source organism: Salmonella enterica subsp. enterica serovar Typhimurium
[42] = source organism: Orthomarburgvirus marburgense
[43] = source organism: Marburg virus - Musoke, Kenya, 1980
[44] = source organism: Escherichia coli O157:H7
[45] = source organism: Mycobacterium tuberculosis C
[46] = source organism: Coxiella burnetii
[47] = source organism: Camelpox virus CMS
[48] = source organism: Vaccinia virus Tian Tan
[49] = source organism: Tokudaia muenninki

Sequence: FMIDWILDA
pKd [1, 41]: 8.52 | pKd [2, 41]: ≤ 4.70 | pKd [3, 41]: 6.58 | pKd [4, 41]: ≤ 4.70 | pKd [5, 41]: ≤ 4.70 | pKd [6, 41]: ≤ 4.70 | pKd [7, 41]: ≤ 4.70 | pKd [8, 41]: ≤ 4.70 | pKd [9, 41]: ≤ 4.70 | pKd [10, 41]: ≤ 4.70 | pKd [11, 41]: 7.25 | pKd [12, 41]: ≤ 4.70 | pKd [13, 41]: ≤ 4.70 | pKd [14, 41]: ≤ 4.70 | pKd [15, 41]: ≤ 4.70 | pKd ([16]; source organism: Aeromonas salmonicida subsp. salmonicida): ≥ 10.00

Sequence: GMYGHPFAL
pKd [17]: 7.55

Sequence: IFDDLQGSL
pKd [18, 42]: 5.42 | pKd [3, 43]: ≤ 4.70 | pKd [19, 43]: ≤ 4.70 | pKd [4, 43]: ≤ 4.70 | pKd [20]: ≤ 4.70 | pKd [5, 43]: ≤ 4.70 | pKd [21, 43]: ≤ 4.70 | pKd [6, 43]: ≤ 4.70 | pKd [22, 43]: ≤ 4.70 | pKd ([23]; source organism: Ravn virus - Ravn, Kenya, 1987): ≤ 4.70 | pKd [11, 43]: ≤ 4.70 | pKd [24, 43]: ≤ 4.70 | pKd [12, 43]: ≤ 4.70 | pKd [13, 43]: ≤ 4.70 | pKd [25]: ≤ 4.70 | pKd [26]: ≤ 4.70 | pKd [27]: ≤ 4.70 | pKd [28]: ≤ 4.70 | pKd [29]: ≤ 4.70 | pKd [30, 42]: ≤ 4.70 | pKd [31]: ≤ 4.70

pKd [1, 44]: 8.38 | pKd [3, 44]: ≤ 4.70 | pKd [5, 44]: ≤ 4.70 | pKd [6, 44]: ≤ 4.70 | pKd [7, 44]: ≤ 4.70 | pKd [9, 44]: ≤ 4.70 | pKd [10, 44]: ≤ 4.70 | pKd [32]: ≤ 4.70 | pKd [24, 44]: ≤ 4.70 | pKd [12, 44]: ≤ 4.70 | pKd [13, 44]: ≤ 4.70 | pKd [14, 44]: ≤ 4.70 | pKd ([16]; source organism: Escherichia coli 536): ≥ 10.00
Sequence: LLDPLYFEV

Sequence: VYAPAGVEL
pKd [18, 45]: ≤ 4.70 | pKd [33, 45]: ≤ 4.70 | pKd ([15]; source organism: Mycobacterium tuberculosis): 8.68

Sequence: YPRYPGVRC
pKd ([34]; source organism: Influenza A virus (A/nt/60/1968(H3N2))): 7.99

Sequence: YTYPIAHTA
pKd [1, 46]: 6.07 | pKd [11, 46]: 8.60 | pKd [35]: 8.40 | pKd ([16]; source organism: Coxiella burnetii RSA 331): 8.96

Sequence: YYKDDISYF
pKd [1, 47]: ≤ 4.70 | pKd ([2]; source organism: Variola virus): 6.24 | pKd [19, 47]: ≤ 4.70 | pKd [21, 47]: ≤ 4.70 | pKd [6, 47]: ≤ 4.70 | pKd [22, 47]: ≤ 4.70 | pKd [7, 47]: ≤ 4.70 | pKd ([8]; source organism: Variola virus): ≤ 4.70 | pKd [36, 48]: 7.54 | pKd ([23]; source organism: Variola virus): ≤ 4.70 | pKd [9, 47]: ≤ 4.70 | pKd [11, 47]: ≤ 4.70 | pKd [15, 47]: 8.43 | pKd [37]: ≤ 4.70 | pKd [38]: 5.86 | pKd [30, 48]: 7.46 | pKd [34, 48]: ≤ 4.70 | pKd [39]: ≤ 4.70 | pKd [40]: ≤ 4.70

Sequence: YYNAFQWAI
pKd [33, 49]: ≤ 4.70 | pKd [36, 49]: 7.52
